Consider 36 molecules from PMC8324831, “A synthetic nanobody targeting RBD protects hamsters from SARS-CoV-2 infection” (Nature Communications, 2021).

This assay has as its target SARS-CoV-2 S-RBD with Avi-tag and deca-His tag (residues 330-531) (SARS-CoV-2, UniProt P0DTC2, biotin on the Avi tag (BirA) where immobilised on streptavidin sensors or used in ELISA and FSEC).

Positions count from the first letter of the chain named.

B1: SR49 (VHH)
VHH: QVQLVESGGGLVQAGGSLRLSCAASGFPVFHAYMAWYRQAPGKEREWVAAIESDGSSTHYADSVKGRFTISRDNAKNTVYLQMNSLKPEDTSVYYCAVLVGFWYAGQGTQVTVS
B1: the binding result was “binds”.

B2: SR46 (VHH)
VHH: QVQLVESGGGLVQAGGSLRLSCAASGFPVFTENMHWYRQAPGKEREWVAAIYSYGVWTLYADSVKGRFTISRDNAKNTVYLQMNSLKPEDTAVYYCVVQVGEWYEGQGTQVTVS
With B2, the binding result is “binds”.

B3: SR62 (VHH)
VHH: B2 VHH with T31Q, Y54Q, V56S, W57Y, V97E, Q99N, E102Q, E105Y
As for B3, the binding result was “binds”.

B4: SR58 (VHH)
VHH: B2 VHH with F30K, T31Q, Y54T, V56N, W57F, V97A, E102Q
As for B4, the binding result is recorded as “binds”.

B5: SR48 (VHH)
VHH: B2 VHH with F30N, T31Q, E32N, Y54S, V56D, W57F, V97E, E102F, E105T
For the molecule B5, the binding result is “binds”.

B6: SR53 (VHH)
VHH: B2 VHH with F30Y, T31S, E32Q, N33H, Y54N, V56T, W57Y, V97E, Q99N
Regarding B6, the binding result was “binds”.

B7: SR55 (VHH)
VHH: B2 VHH with F30D, E32T, Y54S, V56G, W57F, V97T, Q99W, E102D
B7: the binding result is given as “binds”.

B8: MR5 (VHH)
VHH: QVQLVESGGGLVQAGGSLRLSCAASGFPVDAWEMAWYRQAPGKEREWVAAIRSFGRRTHYADSVKGRFTISRDNAKNTVYLQMNSLKPEDTAVYYCNVKDFGTHTQEYDYWGQGTQVTVS
For B8, the binding result was “binds”.

B9: SR51 (VHH)
VHH: QVQLVESGGGLVQAGGSLRLSCAASGFPVWESYMRWYRQAPGKEREWVAAIQSNGNNTWYADSVKGRFTISRDNAKNTVYLQMNSLKPEDTAVYYCVVYVGYEYHGQGTQVTVS
As to B9, the binding result is listed as “binds”.

B10: SR36 (VHH)
VHH: QVQLVESGGGLVQAGGSLRLSCAASGFPVYMEEMEWYRQAPGKEREWVAAIASYGSETYYADSVKGRFTISRDNAKNTVYLQMNSLKPEDTAVYYCYVYVGQSYIGQGTQVTVS
Consider B10, for which the binding result was “binds”.

B11: SR37 (VHH)
VHH: B10 VHH with Y30S, M31T, E32A, E35T, A52E, S56N, E57S, Y59E, Q102Y
B11: the binding result is reported as “binds”.

B12: SR39 (VHH)
VHH: B10 VHH with Y30D, M31A, E32S, A52E, Y54Q, S56Y, Q102S
With B12, the binding result was “binds”.

B13: SR43 (VHH)
VHH: B10 VHH with Y30K, M31K, E32H, A52Q, Y54K, S56Y, E57T, Q102E
B13: the binding result was “binds”.

B14: SR40 (VHH)
VHH: B10 VHH with Y30D, M31S, E32Q, A52S, Y54N, S56K, E57S, Q102L
With B14, the binding result is “binds”.

B15: SR38 (VHH)
VHH: B10 VHH with Y30N, M31Q, A52K, Y54W, S56T, E57L, Y59A, Y97A, Y99H, S103T
Turning to B15, the binding result is reported as “binds”.

B16: SR52 (VHH)
VHH: B10 VHH with Y30N, M31N, E32M, E35T, Y54D, E57Y, Y59E, Y99W, Q102K
As for B16, the binding result is on record as “binds”.

B17: SR41 (VHH)
VHH: B10 VHH with Y30G, M31S, E32T, A52S, Y54T, S56H, E57Y, Y59H, Q102G, I105L
B17: the binding result is reported as “binds”.

B18: SR50 (VHH)
VHH: QVQLVESGGGLVQAGGSLRLNCAASGFPVAQAVMAWYRQALGKEREWVAAMHSTGTYTAYADSVKGRFTISRDNAKNTVYLQMNSLKPEDTAVYYCAVHVGFWYAGQGTQVTVS
For B18, the binding result is on record as “binds”.

B19: SR59 (VHH)
VHH: QVQLVESGGGLVQAGGSLRLSCAASGFPVKTSRMYWYRQAPGKEREWVAAIISYGSVTFYADSVKGRFTISRDNAKNTVYLQMNSLKPEDTAVYYCYVYVGAQYWGQGTQVTVS
For B19, the binding result was “binds”.

B20: MR8 (VHH)
VHH: QVQLVESGGGLVQAGGSLRLSCAASGFPVEWAHMHWYRQAPGKEREWVAAIVSAGHYTVYADSVKGRFTISRDNAKNTVYLQMNSLKPEDTAVYYCNVKDWGSSNQYYDYWGQGTQVTVS
Regarding B20, the binding result is reported as “binds”.

B21: SR44 (VHH)
VHH: QVQLVESGGGLVQAGGSLRLSCAASGFPVGTAQMAWYRQAPGKEREWVAAITSYGEYTLYADSVKGRFTISRDNAKNTVYLQMNSLKPEDTAVYYCAVHVGFWYTGQGTQVTVS
In the case of B21, the binding result is reported as “binds”.

B22: SR60 (VHH)
VHH: B21 VHH with G30E, T31H, T52Q, E56S, Y57T, L59Y, T105A
As to B22, the binding result is “binds”.

B23: SR57 (VHH)
VHH: B1 VHH with F30E, H31Q, Y33E, E52V, D54Y, S56H, H59Y, S92A, L99F
Regarding B23, the binding result is reported as “binds”.

B24: SR61 (VHH)
VHH: B1 VHH with F30D, H31I, Y33E, E52G, D54Q, S56M, S57T, S92A, L99H
Take B24: the binding result is “binds”.

B25: SR47 (VHH)
VHH: B2 VHH with F30K, N33T, V56T, W57Y, V97E
In the case of B25, the binding result is given as “binds”.

B26: MR6 (VHH)
VHH: QVQLVESGGGLVQAGGSLRLSCAASGFPVEDTWMEWYRQAPGKEREWVAAITSWGFKTYYADSVKGRFTISRDNAKNTVYLQMNSLKPEDTAVYYCNVKDEGDTSASYDYWGQGTQVTVS
In the case of B26, the binding result is “binds”.

B27: MR9 (VHH)
VHH: B26 VHH with E30A, D31S, W54Y, F56Y, K57H, D103Y, T104F, A106T, S107N
Consider B27, for which the binding result is on record as “binds”.

B28: MR10 (VHH)
VHH: B26 VHH with E30A, D31N, W54Y, F56Y, K57R, D103A, S105T, A106K, S107V
B28: the binding result is on record as “binds”.

B29: SR56 (VHH)
VHH: QVQLVESGGGLVQAGGSLSLSCAASGFPVEHYGMYWYRQAPGKEREWVAAIRSDGQWTHYADSVKGRFTISRDNAKNTVYLQMNSLKPEDTAVYYCTVGVGSNYYGQGTQVTVS
For the molecule B29, the binding result was “binds”.

B30: MR2 (VHH)
VHH: QVQLVESGGGLVQAGGSLRLSCAASGFPVYFSYMAWYRQAPGKEREWVAAINSEGDSTTYADSVKGRFTISRDNAKNTVYLQMNSLKPEDTAVYYCNVKDYGWYNSQYDYWGQGTQVTVS
In the case of B30, the binding result is “binds”.

B31: SR45 (VHH)
VHH: QVQLVESGGGLVQAGGSLRLSCAASGFPVDNATMAWYRQAPGKEREWVAAIHSIGGYTTYADSVKGRFTISRDNAKNTVYLQMNSLKPEDTAVYYCVGVGKHYYGQGTQVTVS
With B31, the binding result is “binds”.

B32: MR7 (VHH)
VHH: QVQLVESGGGLVQAGGSLRLSCAASGFPVNSWMEWYRQAPGKEREWVAAITSYGYKTYYADSVKGRFTISRDNAKNTVYLQMNSLKPEDTAVYYCNVKDEGYFSDEYDYWGQGTQVTVS
B32: the binding result is given as “binds”.

B33: SR35 (VHH)
VHH: QVQLVESGGGLVQAGGSLRLSCAASGFPVKHQTMEWYRQAPGKEREWVAAIMSKGRKTEYADSVKGRFTISRDNAKNTVYLQMNSLKPEDTAVYHCHVYVGATYFGQGTQVTVS
With B33, the binding result is listed as “binds”.

B34: SR42 (VHH)
VHH: B33 VHH with K30Q, H31Q, Q32R, T33E, E35T, R56V, K57H, H95Y, T103S
With B34, the binding result was “binds”.

B35: MR1 (VHH)
VHH: QVQLVESGGGLVQVGGSLRLSCAASGFPVYHSIMHWYRQAPGKEREWVAAIYSSGAHTYYADSVKGRFTISRDNAKNTVYLQMNSLKPEDTAVYYCNVKDGGNWDHTYDYWGQGTQVTVS
As for B35, the binding result is given as “binds”.

B36: SR54 (VHH)
VHH: QVQLVESGGGLVQAGGSLRLSCAASGFPVSQARMHWYRQAPGKEREWVAAIGSSGDFTRYADSVKGRFTISRDNAKNTVYLQMNSLKPEDTAVYYCEVQVGQWYEGQGTQVTVS
For the molecule B36, the binding result is “binds”.
